Key:
[1] = target: T1, human PSMA on PSMA-positive prostate cancer cells (LNCaP, 22Rv1, VCaP, patient-derived tumor cells) (human, UniProt Q04609 1-750); test: cell-based or functional assay
[2] = target: T1, human PSMA on PSMA-positive prostate …; test: FACS on PSMA-positive LNCaP cells, detection with polyclonal anti-human IgG
Method: To test the binding of the molecule to PSMA, a concentration range of antibody was tested for binding to the PSMA positive prostate cancer cell line LNCaP and to the antigen negative cell line PC-3. Detection was performed with a polyclonal anti-human IgG antibody.

[3] = target: T1, human PSMA on PSMA-positive prostate …; test: cell-based or functional assay; remark: listed apart in the source
[4] = target: recombinant human PSMA, biotinylated (hPSMA) (human, UniProt Q04609 44-750, biotinylated (site not stated)); test: BLI, biotinylated hPSMA on streptavidin biosensors, antibody as analyte 3.125-200 nM; mean of n = 3, SD 1.24E-09
[5] = target: T1, human PSMA on PSMA-positive prostate …; test: cell-based or functional assay; remark: listed apart in the source

T1 sequence (Q04609 whole entry): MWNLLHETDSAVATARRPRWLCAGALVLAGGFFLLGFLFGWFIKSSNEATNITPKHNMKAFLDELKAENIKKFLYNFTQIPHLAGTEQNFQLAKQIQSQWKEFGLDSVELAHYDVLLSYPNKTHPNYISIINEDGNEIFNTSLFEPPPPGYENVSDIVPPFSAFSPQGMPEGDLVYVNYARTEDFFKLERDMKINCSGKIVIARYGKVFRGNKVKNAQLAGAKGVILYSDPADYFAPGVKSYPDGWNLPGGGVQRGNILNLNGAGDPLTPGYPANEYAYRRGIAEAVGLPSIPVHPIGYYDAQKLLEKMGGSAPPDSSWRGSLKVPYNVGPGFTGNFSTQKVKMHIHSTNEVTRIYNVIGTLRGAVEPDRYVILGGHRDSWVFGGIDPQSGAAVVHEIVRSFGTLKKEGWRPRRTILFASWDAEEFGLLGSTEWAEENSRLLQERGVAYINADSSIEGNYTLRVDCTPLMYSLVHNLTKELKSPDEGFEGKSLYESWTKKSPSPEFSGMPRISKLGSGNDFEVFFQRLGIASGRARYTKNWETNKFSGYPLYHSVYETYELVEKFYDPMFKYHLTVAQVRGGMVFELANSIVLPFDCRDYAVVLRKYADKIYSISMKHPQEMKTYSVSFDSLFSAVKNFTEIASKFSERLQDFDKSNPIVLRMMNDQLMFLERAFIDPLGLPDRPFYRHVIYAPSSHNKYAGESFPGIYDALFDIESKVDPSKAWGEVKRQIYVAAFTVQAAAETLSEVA
recombinant human PSMA, biotinylated (hPSMA), sequence (Q04609 44-750 limits assumed): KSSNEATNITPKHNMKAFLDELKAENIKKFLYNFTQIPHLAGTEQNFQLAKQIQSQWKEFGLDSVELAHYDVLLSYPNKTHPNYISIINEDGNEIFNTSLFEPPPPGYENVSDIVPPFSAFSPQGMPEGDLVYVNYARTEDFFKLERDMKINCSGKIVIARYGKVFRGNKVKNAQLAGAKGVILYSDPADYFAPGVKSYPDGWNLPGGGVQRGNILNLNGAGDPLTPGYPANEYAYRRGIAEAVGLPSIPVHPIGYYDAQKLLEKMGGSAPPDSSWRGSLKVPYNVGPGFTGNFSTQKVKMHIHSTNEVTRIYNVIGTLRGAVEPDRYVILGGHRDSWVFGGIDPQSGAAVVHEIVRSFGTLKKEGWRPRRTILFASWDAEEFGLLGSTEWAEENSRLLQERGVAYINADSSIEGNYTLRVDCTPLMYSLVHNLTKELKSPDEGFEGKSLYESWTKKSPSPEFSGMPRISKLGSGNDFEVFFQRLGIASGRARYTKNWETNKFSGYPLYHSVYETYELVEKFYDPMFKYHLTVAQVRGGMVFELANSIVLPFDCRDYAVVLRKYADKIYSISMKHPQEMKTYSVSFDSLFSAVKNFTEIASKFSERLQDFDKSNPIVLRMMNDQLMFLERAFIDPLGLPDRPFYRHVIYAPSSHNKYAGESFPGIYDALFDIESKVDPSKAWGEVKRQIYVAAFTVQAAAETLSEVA

EC50 [2]	Mean EC50, degranulation (CD107a) after 4 hours, 22Rv1, E:T 1:1 [3]	Mean EC50, degranulation (CD107a) after 4 hours, LNCaP, E:T 1:1 [3]	Mean EC50, degranulation (CD107a) after 4 hours, VCaP, E:T 1:1 [3]	Kd [4]	Binder	EC50, Vγ9Vδ2 T cell mediated cytotoxicity of LNCaP cells, 24 h, E:T 1:1 [1]	EC50 for cytotoxicity, LNCaP target cells, 24 h, 7AAD in FACS, E:T 1:1 [1]	Mean EC50, cytotoxicity after 24 hours (CytoTox-Glo), 22Rv1, E:T 1:1 [3]	Mean EC50, cytotoxicity after 24 hours (CytoTox-Glo), LNCaP, E:T 1:1 [3]	Mean EC50, cytotoxicity after 24 hours (CytoTox-Glo), VCaP, E:T 1:1 [3]	Mean EC50, Vγ9Vδ2-T cell cytotoxicity of LNCaP cells, 24 h, E:T 1:1 [5]	Mean EC50, Vγ9Vδ2-T cell cytotoxicity of LNCaP cells, 24 h, E:T 1:10 [5]
					LV1044-5C8 (bispecific antibody) EVQLVESGGGLVQPGGSLTLSCAASRFMISEYSMHWVRQAPGKGLEWVSTINPAGTTDYAESVKGRFTISRDNAKNTLYLQMNSLKPEDTAVYYCDGYGYRGQGTQVTVSSGGGGSEVQLVESGGGLVQAGGSLRLSCAASGRPFSNYAMGWFRQAPGKEREFVAAISWSGGSTSYADSVKGRFTISRDNAKNTVYLQMNSPKPEDTAIYYCAAQFSGADYGFGRLGIRGYEYDYWGQGTQVTVSS	0.0016 nM	0.0019 nM					
7.3 nM	0.029 nM	0.016 nM	0.028 nM	31.6 nM	LV1050-Fc x 5C8var1-Fc (bispecific antibody, V domains shown, Knob-into-hole heterodimer of two VHH-Fc chains; also called 5C8var1-Fc x LV1050-Fc; lead bispecific antibody) V domain 1: EVQLVESGGGLVQPGGSLRLSCAASRFMISEYSMHWVRQAPGKGLEWVSTINPAGTTDYADSVKGRFTISRDNAKNTLYLQMNSLRAEDTAVYYCDGYGYRGQGTQVTVSS V domain 2: EVQLLESGGGSVQPGGSLRLSCAASGRPFSNYAMSWFRQAPGKEREFVSAISWSGGSTSYADSVKGRFTISRDNSKNTLYLQMNSLRAEDTAVYYCAAQFSGADYGFGRLGIRGYEYDYWGQGTQVTVSS	0.0105 nM	0.0094 nM	0.013 nM	0.017 nM	0.015 nM	0.017 nM	0.0099 nM
					LV1050-5C8var1 (bispecific antibody) EVQLVESGGGLVQPGGSLRLSCAASRFMISEYSMHWVRQAPGKGLEWVSTINPAGTTDYADSVKGRFTISRDNAKNTLYLQMNSLRAEDTAVYYCDGYGYRGQGTQVTVSSGGGGSEVQLLESGGGSVQPGGSLRLSCAASGRPFSNYAMSWFRQAPGKEREFVSAISWSGGSTSYADSVKGRFTISRDNSKNTLYLQMNSLRAEDTAVYYCAAQFSGADYGFGRLGIRGYEYDYWGQGTQVTVSSAAAEPEA	0.0022 nM	0.0019 nM					
